Test results published in IntAct's records for PubMed 18273060.

B1: Growth factor receptor-bound protein 7 (Mus musculus), Q03160 (parent)
chain: MELDLSPTHLSSSPEDVCPTPATPPETPPPPDNPPPGDVKRSQPLPIPSSRKLREEEFQATSLPSIPNPFPELCSPPSQKPILGGSSGARGLLPRDSSRLCVVKVYSEDGACRSVEVAAGATARHVCEMLVQRAHALSDESWGLVESHPYLALERGLEDHEFVVEVQEAWPVGGDSRFIFRKNFAKYELFKSPPHTLFPEKMVSSCLDAQTGISHEDLIQNFLNAGSFPEIQGFLQLRGSGRGSGRKLWKRFFCFLRRSGLYYSTKGTSKDPRHLQYVADVNESNVYVVTQGRKLYGMPTDFGFCVKPNKLRNGHKGLHIFCSEDEQSRTCWLAAFRLFKYGVQLYKNYQQAQSRHLRLSYLGSPPLRSVSDNTLVAMDFSGHAGRVIDNPREALSAAMEEAQAWRKKTNHRLSLPTTCSGSSLSAAIHRTQPWFHGRISREESQRLIGQQGLVDGVFLVRESQRNPQGFVLSLCHLQKVKHYLILPSEDEGCLYFSMDEGQTRFTDLLQLVEFHQLNRGILPCLLRHCCARVAL

Variants of: B1
Conditions: with elav1_mouse Elavl1, P70372
Chain of elav1_mouse Elavl1, P70372 (P70372 whole entry): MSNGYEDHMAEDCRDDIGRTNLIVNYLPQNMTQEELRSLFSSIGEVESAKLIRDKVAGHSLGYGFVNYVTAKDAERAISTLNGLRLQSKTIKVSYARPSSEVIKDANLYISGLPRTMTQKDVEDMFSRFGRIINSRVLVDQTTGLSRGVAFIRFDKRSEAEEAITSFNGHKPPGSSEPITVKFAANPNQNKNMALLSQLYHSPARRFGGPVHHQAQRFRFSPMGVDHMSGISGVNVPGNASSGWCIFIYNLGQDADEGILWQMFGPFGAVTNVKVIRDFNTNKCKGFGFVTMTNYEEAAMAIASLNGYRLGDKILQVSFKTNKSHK

Variant | effect of a mutation on the interaction
Y495F | increasing interaction
